B1: Histone-lysine N-methyltransferase SETD1B (Homo sapiens), Q9UPS6-2 (parent)
chain: MENSHPPHHHHQQPPPQPGPSGERRNHHWRSYKLMIDPALKKGHHKLYRYDGQHFSLAMSSNRPVEIVEDPRVVGIWTKNKELELSVPKFKIDEFYVGPVPPKQVTFAKLNDNIRENFLRDMCKKYGEVEEVEILYNPKTKKHLGIAKVVFATVRGAKDAVQHLHSTSVMGNIIHVELDTKGETRMRFYELLVTGRYTPQTLPVGELDAVSPIVNETLQLSDALKRLKDGGLSAGCGSGSSSVTPNSGGTPFSQDTAYSSCRLDTPNSYGQGTPLTPRLGTPFSQDSSYSSRQPTPSYLFSQDPAVTFKARRHESKFTDAYNRRHEHHYVHNSPAVTAVAGATAAFRGSSDLPFGAVGGTGGSSGPPFKAQPQDSATFAHTPPPAQATPAPGFKSAFSPYQTPVAHFPPPPEEPTATAAFGARDSGEFRRAPAPPPLPPAEPLAKEKPGTPPGPPPPDTNSMELGGRPTFGWSPEPCDSPGTPTLESSPAGPEKPHDSLDSRIEMLLKEQRTKLLFLREPDSDTELQMEGSPISSSSSQLSPLAPFGTNSQPGFRGPTPPSSRPSSTGLEDISPTPLPDSDEDEELDLGLGPRPPPEPGPPDPAGLLSQTAEVALDLVGDRTPTSEKMDEGQQSSGEDMEISDDEMPSAPITSADCPKPMVVTPGAAAVAAPSVLAPTLPLPPPPGFPPLPPPPPPPPPQPGFPMPPPLPPPPPPPPPAHPAVTVPPPPLPAPPGVPPPPILPPLPPFPPGLFPVMQVDMSHVLGGQWGGMPMSFQMQTQVLSRLMTGQGACPYPPFMAAAAAAASAGLQFVNLPPYRGPFSLSNSGPGRGQHWPPLPKFDPSVPPPGYMPRQEDPHKATVDGVLLVVLKELKAIMKRDLNRKMVEVVAFRAFDEWWDKKERMAKASLTPVKSGEHKDEDRPKPKDRIASCLLESWGKGEGLGYEGLGLGIGLRGAIRLPSFKVKRKEPPDTTSSGDQKRLRPSTSVDEEDEESERERDRDMADTPCELAKRDPKGVGVRRRPARPLELDSGGEEDEKESLSEEQESTEEEEEAEEEEEEEDDDDDDSDDRDESENDDEDTALSEASEKDEGDSDEEETVSIVTSKAEATSSSESSESSEFESSSESSPSSSEDEEEVVAREEEEEEEEEEMVAEESMASAGPEDFEQDGEEAALAPGAPAVDSLGMEEEVDIETEAVAPEERPSMLDEPPLPVGVEEPADSREPPEEPGLSQEGAMLLSPEPPAKEVEARPPLSPERAPEHDLEVEPEPPMMLPLPLQPPLPPPRPPRPPSPPPEPETTDASHPSVPPEPLAEDHPPHTPGLCGSLAKSQSTETVPATPGGEPPLSGGSSGLSLSSPQVPGSPFSYPAPSPSLSSGGLPRTPGRDFSFTPTFSEPSGPLLLPVCPLPTGRRDERSGPLASPVLLETGLPLPLPLPLPLPLALPAVLRAQARAPTPLPPLLPAPLASCPPPMKRKPGRPRRSPPSMLSLDGPLVRPPAGAALGRELLLLPGQPQTPVFPSTHDPRTVTLDFRNAGIPAPPPPLPPQPPPPPPPPPVEPTKLPFKELDNQWPSEAIPPGPRGRDEVTEEYMELAKSRGPWRRPPKKRHEDLVPPAGSPELSPPQPLFRPRSEFEEMTILYDIWNGGIDEEDIRFLCVTYERLLQQDNGMDWLNDTLWVYHPSTSLSSAKKKKRDDGIREHVTGCARSEGFYTIDKKDKLRYLNSSRASTDEPPADTQGMSIPAQPHASTRAGSERRSEQRRLLSSFTGSCDSDLLKFNQLKFRKKKLKFCKSHIHDWGLFAMEPIAADEMVIEYVGQNIRQVIADMREKRYEDEGIGSSYMFRVDHDTIIDATKCGNFARFINHSCNPNCYAKVITVESQKKIVIYSKQHINVNEEITYDYKFPIEDVKIPCLCGSENCRGTLN

Variants of: B1
Details: with ASH2L

| effect of a mutation on the interaction | Variant |
| --- | --- |
| disrupting interaction strength | R1819A |

Reference: IntAct's records for PubMed 26886794
